“Also recorded” adds a separate entry of the source. Like-named read-outs stand apart in the source and are kept apart here. The star is where a group is joined. aminooxyacetyl = NOCC(=O)*
Legend:
NPY Y2 receptor = molecular target: T1, NPY Y2 receptor (Homo sapiens, UniProt P49146); assay: Y2 radioreceptor binding assay (125I-NPY displacement, LN319 cells); details: FIG. 7
T1 construct: endogenous in cells; host or cells: LN319 (human glioblastoma)
T1 sequence (P49146 1-381): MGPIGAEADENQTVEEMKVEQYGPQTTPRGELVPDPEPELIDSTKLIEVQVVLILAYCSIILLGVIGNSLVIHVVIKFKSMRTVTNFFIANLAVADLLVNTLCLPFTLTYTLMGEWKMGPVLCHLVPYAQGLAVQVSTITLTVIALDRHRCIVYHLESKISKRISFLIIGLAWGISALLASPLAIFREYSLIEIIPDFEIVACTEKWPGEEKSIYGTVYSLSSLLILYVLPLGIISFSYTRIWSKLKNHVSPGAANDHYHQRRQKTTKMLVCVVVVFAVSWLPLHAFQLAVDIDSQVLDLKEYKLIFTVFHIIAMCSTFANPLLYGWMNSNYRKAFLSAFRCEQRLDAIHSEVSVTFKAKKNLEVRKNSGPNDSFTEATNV
Method: Tissue culture media were purchased from Life Technologies (Basel, Switzerland) and fetal calf serum was obtained from Seromed (Berlin, Germany). 70% confluent cells were washed with PBS and harvested using 0.15% Trypsin containing 0.4 mM EDTA. Cells were further diluted 1/3 and plated onto either 60 mm cell culture dishes (Nunc, Denmark) or 12-mm glass coverslips (Huber and Co, AG, Reinach, Switzerland). Media were changed every 3 days. A human glioblastoma cell line, LN319, was used for Y2 binding studies (Greber, et al., Br. J. Pharmacol. 113:737-740 (1994)). Prior to performing binding assays, adhered LN319 cells were washed extensively with phosphate buffered saline. […] After centrifugation at 600 g for 15 minutes at a temperature of 4° C., the pellet was resuspended in the harvesting buffer. […] Incubation proceeded at room temperature for 45 minutes. Bound radioactivity was determined after separating the unbound fraction by centrifugation.

[1] = Circular dichroism spectroscopy of conformational properties; assay type: physicochemical; details: in TFE, 295K
Method: The conformational properties of TASP-V were studied in solution mainly by circular dichroism (CD) spectroscopy under various experimental conditions. In order to detect effects of template attachment on secondary and tertiary structure formation, the corresponding single (not template attached) peptide IV was also studied.
CD spectra were recorded on a Jobin Yvon Dichrograph Mark VI calibrated with D(+)-10-camphorsulfonic acid. All measurements were performed at 295K using quartz cells with a path length of 0.1 cm and each spectrum was the average of three repeated scans between 185 nm to 250 nm, with an integration time of Is for 0.8 nm steps. The spectra were corrected by substraction of the background solvent spectrum obtained under identical experimental conditions and smoothed for clarity of display. CD intensities are expressed as mean residue ellipticities (deg cm2 dmol-1), calculated by dividing the total molar ellipticities by the number of amino acids in the peptide.

domestic pigs [2] = details: pig, in vivo
Method: Experiments were performed on 16 domestic pigs of both sexes (body weight 20-30 kg). The animals were premedicated with atropine (0.05 mg/kg) and ketamine (Ketalar, ParkeDavis, USA, 20 mg/kg i.m.) and anaesthetized with thiopentone (5 mg/kg i.v.). A tracheostomy was performed and artificial ventilation was started using a volume regulated ventilator (type Siemens 900). During surgery, continuous i.v. infusion of Ringer's solution, thiopentone (15 mg/kg/h) and pancuronium bromide (0.25 mg/kg/h) was performed.
Catheters were placed in the femoral artery for systemic blood pressure and heart rate monitoring and in the femoral vein for thiopentone and fluid administration (300 ml/h). […] Nasal arterial blood flow was monitored with a Transonic flow probe (RB 143) placed around the sphenopalatine artery and connected to a T 202 ultrasonic blood flowmeter (Transonic System Inc., Ithaca, N.Y., USA).
Heart rate and systemic arterial blood pressure using the femoral artery catheter connected to a pressure transducer.
Sphenopalatine arterial blood flow using an Ultrasonic flow meter probe (see above).

domestic pigs [3] = details: pig, in vivo; remark: listed apart in the source
Method: Experiments were performed on 16 domestic pigs of both sexes (body weight 20-30 kg). The animals were premedicated with atropine (0.05 mg/kg) and ketamine (Ketalar, ParkeDavis, USA, 20 mg/kg i.m.) and anaesthetized with thiopentone (5 mg/kg i.v.). A tracheostomy was performed and artificial ventilation was started using a volume regulated ventilator (type Siemens 900). During surgery, continuous i.v. infusion of Ringer's solution, thiopentone (15 mg/kg/h) and pancuronium bromide (0.25 mg/kg/h) was performed. […]
2. […] Airway pressure was measured from a catheter positioned at the tip of the endotracheal tube. Transpulmonary pressure was determined by a differential pressure transducer (Hewlett-Packard 267B) taking the difference between tracheal and oesophagus pressure. Tidal volume was determined by integration of the respiratory flow signal measured with a pneumotachograph (Gould Godard, model 17212) by means of a heated Fleisch flow transducer #2 connected to the endotracheal tube. Transpulmonary pressure, tidal volume and flow were continuously recorded on a 4-channel recorder (Hewlett-Packard, 7754 GB). Total airflow resistance across the lungs (raw) was determined by dividing the difference in transpulmonary pressure by inspiratory plus expiratory flow at mid-tidal volume. […]

Leu31, Pro34 NPY: Leu31- and Pro34-substituted NPY, shown to be a Y1 agonist
Affinity / binding to the Y2 receptor (in words) (NPY Y2 receptor): poor affinity binding; also recorded: bound poorly

IV: single, not template attached aminooxyacetyl NPY21-36 amide peptide (IV in FIG. 5) (aminooxyacetyl-YSALRHYINLITRQRY-NH2; SMILES CC[C@H](C)[C@H](NC(=O)[C@H](Cc1ccc(O)cc1)NC(=O)[C@H](Cc1c[nH]cn1)NC(=O)[C@H](CCCNC(=N)N)NC(=O)[C@H](CC(C)C)NC(=O)[C@H](C)NC(=O)[C@H](CO)NC(=O)[C@H](Cc1ccc(O)cc1)NC(=O)CON)C(=O)N[C@@H](CC(N)=O)C(=O)N[C@@H](CC(C)C)C(=O)N[C@H](C(=O)N[C@H](C(=O)N[C@@H](CCCNC(=N)N)C(=O)N[C@@H](CCC(N)=O)C(=O)N[C@@H](CCCNC(=N)N)C(=O)N[C@@H](Cc1ccc(O)cc1)C(N)=O)[C@@H](C)O)[C@@H](C)CC; UniProt P01303 49-64, looked up, fragment)
Helicity / secondary structure content by CD [1]: < 30%

CC[C@H](C)[C@H](NC(=O)[C@H](Cc1ccc(O)cc1)NC(=O)[C@H](Cc1c[nH]cn1)NC(=O)[C@H](CCCNC(=N)N)NC(=O)[C@H](CC(C)C)NC(=O)[C@H](C)NC(=O)[C@H](CO)NC(=O)[C@H](Cc1ccc(O)cc1)NC(=O)CNC(=O)CON=CC(=O)NCCCC[C@@H]1NC(=O)CNC(=O)[C@H](CCCCNC(=O)C=NOCC(=O)NCC(=O)N[C@@H](Cc2ccc(O)cc2)C(=O)N[C@@H](CO)C(=O)N[C@@H](C)C(=O)N[C@@H](CC(C)C)C(=O)N[C@@H](CCCNC(=N)N)C(=O)N[C@@H](Cc2c[nH]cn2)C(=O)N[C@@H](Cc2ccc(O)cc2)C(=O)N[C@H](C(=O)N[C@@H](CC(N)=O)C(=O)N[C@@H](CC(C)C)C(=O)N[C@H](C(=O)N[C@H](C(=O)N[C@@H](CCCNC(=N)N)C(=O)N[C@@H](CCC(N)=O)C(=O)N[C@@H](CCCNC(=N)N)C(=O)N[C@@H](Cc2ccc(O)cc2)C(N)=O)[C@@H](C)O)[C@@H](C)CC)[C@@H](C)CC)NC(=O)c2ccc3cccc(c3c2)CNC1=O)C(=O)N[C@@H](CC(N)=O)C(=O)N[C@@H](CC(C)C)C(=O)N[C@H](C(=O)N[C@H](C(=O)N[C@@H](CCCNC(=N)N)C(=O)N[C@@H](CCC(N)=O)C(=O)N[C@@H](CCCNC(=N)N)C(=O)N[C@@H](Cc1ccc(O)cc1)C(N)=O)[C@@H](C)O)[C@@H](C)CC [TASP-V]
Change in heart rate or mean arterial blood pressure (domestic pigs [2]): did not induce any change | Change in heart rate or mean arterial blood pressure (domestic pigs [3]): did not induce any change

From patent US20040009905A1 (B.M.R.A. Corporation B.V., priority 1998, published 2004)
